Source: publication PMC4652773, “Functional significance of protein assemblies predicted by the crystal structure of the restriction endonuclease BsaWI”

Experiments:
[1] = target: BsaWI D145A (Bacillus stearothermophilus W1718); test: SEC; gel filtration at 5 μM loading concentration; Superdex column, room temperature, 20 mM Tris-HCl pH 7.4, 0.5 M NaCl, 5% glycerol; oligomeric state from the apparent Mw
[2] = target: BsaWI E128A (Bacillus stearothermophilus W1718); test: native gel or EMSA; 1 nM 33P-labeled 30-bp SP duplex with 0.02-1000 nM protein, 40 mM Tris-acetate pH 8.3, 0.1 mg/ml BSA, 10% glycerol, 5 mM CaCl2, room temperature; oligomeric state of the DNA-bound protein read from the mobility of the complex
[3] = target: BsaWI E128A (Bacillus stearothermophilus W1718); test: SEC; gel filtration of the tetramerization interface mutants at up to 25 μM protein; Superdex column, room temperature, 20 mM Tris-HCl pH 7.4, 0.5 M NaCl, 5% glycerol
[4] = target: BsaWI E128A (Bacillus stearothermophilus W1718); test: SEC; gel filtration at 5 μM loading concentration; Superdex column, room temperature, 20 mM Tris-HCl pH 7.4, 0.5 M NaCl, 5% glycerol; oligomeric state from the apparent Mw
[5] = target: BsaWI E128A (Bacillus stearothermophilus W1718)
[6] = target: BsaWI E128A&W262A (Bacillus stearothermophilus W1718); test: native gel or EMSA; 1 nM 33P-labeled 30-bp SP duplex with 0.02-1000 nM protein, 40 mM Tris-acetate pH 8.3, 0.1 mg/ml BSA, 10% glycerol, 5 mM CaCl2, room temperature; oligomeric state of the DNA-bound protein read from the mobility of the complex
[7] = target: BsaWI E128A&W262A (Bacillus stearothermophilus W1718); test: SEC; gel filtration of the tetramerization interface mutants at up to 25 μM protein; Superdex column, room temperature, 20 mM Tris-HCl pH 7.4, 0.5 M NaCl, 5% glycerol
[8] = target: BsaWI E128A&W262A (Bacillus stearothermophilus W1718); test: SEC; gel filtration at 5 μM loading concentration; Superdex column, room temperature, 20 mM Tris-HCl pH 7.4, 0.5 M NaCl, 5% glycerol; oligomeric state from the apparent Mw
[9] = target: BsaWI E128A&W262A (Bacillus stearothermophilus W1718)
[10] = target: BsaWI R130A&R259A (Bacillus stearothermophilus W1718); test: native gel or EMSA; 1 nM 33P-labeled 30-bp SP duplex with 0.02-1000 nM protein, 40 mM Tris-acetate pH 8.3, 0.1 mg/ml BSA, 10% glycerol, 5 mM CaCl2, room temperature; oligomeric state of the DNA-bound protein read from the mobility of the complex
[11] = target: BsaWI R130A&R259A (Bacillus stearothermophilus W1718); test: SEC; gel filtration of the tetramerization interface mutants at up to 25 μM protein; Superdex column, room temperature, 20 mM Tris-HCl pH 7.4, 0.5 M NaCl, 5% glycerol
[12] = target: BsaWI R130A&R259A (Bacillus stearothermophilus W1718); test: SEC; gel filtration at 5 μM loading concentration; Superdex column, room temperature, 20 mM Tris-HCl pH 7.4, 0.5 M NaCl, 5% glycerol; oligomeric state from the apparent Mw
[13] = target: BsaWI R130A&R259A (Bacillus stearothermophilus W1718)
[14] = target: BsaWI E128A&R130A (Bacillus stearothermophilus W1718); test: native gel or EMSA; 1 nM 33P-labeled 30-bp SP duplex with 0.02-1000 nM protein, 40 mM Tris-acetate pH 8.3, 0.1 mg/ml BSA, 10% glycerol, 5 mM CaCl2, room temperature; oligomeric state of the DNA-bound protein read from the mobility of the complex
[15] = target: BsaWI E128A&R130A (Bacillus stearothermophilus W1718); test: SEC; gel filtration of the tetramerization interface mutants at up to 25 μM protein; Superdex column, room temperature, 20 mM Tris-HCl pH 7.4, 0.5 M NaCl, 5% glycerol
[16] = target: BsaWI E128A&R130A (Bacillus stearothermophilus W1718); test: SEC; gel filtration at 5 μM loading concentration; Superdex column, room temperature, 20 mM Tris-HCl pH 7.4, 0.5 M NaCl, 5% glycerol; oligomeric state from the apparent Mw
[17] = target: BsaWI E128A&R130A (Bacillus stearothermophilus W1718)
[18] = target: BsaWI R259A&W262A (Bacillus stearothermophilus W1718); test: native gel or EMSA; 1 nM 33P-labeled 30-bp SP duplex with 0.02-1000 nM protein, 40 mM Tris-acetate pH 8.3, 0.1 mg/ml BSA, 10% glycerol, 5 mM CaCl2, room temperature; oligomeric state of the DNA-bound protein read from the mobility of the complex
[19] = target: BsaWI R259A&W262A (Bacillus stearothermophilus W1718); test: SEC; gel filtration of the tetramerization interface mutants at up to 25 μM protein; Superdex column, room temperature, 20 mM Tris-HCl pH 7.4, 0.5 M NaCl, 5% glycerol
[20] = target: BsaWI R259A&W262A (Bacillus stearothermophilus W1718); test: SEC; gel filtration at 5 μM loading concentration; Superdex column, room temperature, 20 mM Tris-HCl pH 7.4, 0.5 M NaCl, 5% glycerol; oligomeric state from the apparent Mw
[21] = target: BsaWI R259A&W262A (Bacillus stearothermophilus W1718)
[22] = target: BsaWI D175A (Bacillus stearothermophilus W1718); test: SEC; gel filtration at 5 μM loading concentration; Superdex column, room temperature, 20 mM Tris-HCl pH 7.4, 0.5 M NaCl, 5% glycerol; oligomeric state from the apparent Mw
[23] = target: BsaWI R130A (Bacillus stearothermophilus W1718); test: native gel or EMSA; 1 nM 33P-labeled 30-bp SP duplex with 0.02-1000 nM protein, 40 mM Tris-acetate pH 8.3, 0.1 mg/ml BSA, 10% glycerol, 5 mM CaCl2, room temperature; oligomeric state of the DNA-bound protein read from the mobility of the complex
[24] = target: BsaWI R130A (Bacillus stearothermophilus W1718); test: SEC; gel filtration of the tetramerization interface mutants at up to 25 μM protein; Superdex column, room temperature, 20 mM Tris-HCl pH 7.4, 0.5 M NaCl, 5% glycerol
[25] = target: BsaWI R130A (Bacillus stearothermophilus W1718); test: SEC; gel filtration at 5 μM loading concentration; Superdex column, room temperature, 20 mM Tris-HCl pH 7.4, 0.5 M NaCl, 5% glycerol; oligomeric state from the apparent Mw
[26] = target: BsaWI R130A (Bacillus stearothermophilus W1718)
[27] = target: BsaWI K85A (Bacillus stearothermophilus W1718); test: SEC; gel filtration at 5 μM loading concentration; Superdex column, room temperature, 20 mM Tris-HCl pH 7.4, 0.5 M NaCl, 5% glycerol; oligomeric state from the apparent Mw
[28] = target: BsaWI R259A (Bacillus stearothermophilus W1718); test: native gel or EMSA; 1 nM 33P-labeled 30-bp SP duplex with 0.02-1000 nM protein, 40 mM Tris-acetate pH 8.3, 0.1 mg/ml BSA, 10% glycerol, 5 mM CaCl2, room temperature; oligomeric state of the DNA-bound protein read from the mobility of the complex
[29] = target: BsaWI R259A (Bacillus stearothermophilus W1718); test: SEC; gel filtration of the tetramerization interface mutants at up to 25 μM protein; Superdex column, room temperature, 20 mM Tris-HCl pH 7.4, 0.5 M NaCl, 5% glycerol
[30] = target: BsaWI R259A (Bacillus stearothermophilus W1718); test: SEC; gel filtration at 5 μM loading concentration; Superdex column, room temperature, 20 mM Tris-HCl pH 7.4, 0.5 M NaCl, 5% glycerol; oligomeric state from the apparent Mw
[31] = target: BsaWI R259A (Bacillus stearothermophilus W1718)
[32] = target: restriction endonuclease BsaWI, wild type (Bacillus stearothermophilus W1718); test: native gel or EMSA; 1 nM 33P-labeled 30-bp SP duplex with 0.02-1000 nM protein, 40 mM Tris-acetate pH 8.3, 0.1 mg/ml BSA, 10% glycerol, 5 mM CaCl2, room temperature; oligomeric state of the DNA-bound protein read from the mobility of the complex
[33] = target: restriction endonuclease BsaWI, wild type (Bacillus stearothermophilus W1718); test: SEC; gel filtration of the BsaWI-DNA complex with the 30 bp SP oligoduplex; Superdex column, room temperature, 20 mM Tris-HCl pH 7.4, 0.5 M NaCl, 5% glycerol
[34] = target: restriction endonuclease BsaWI, wild type (Bacillus stearothermophilus W1718); test: SEC; gel filtration at low loading concentrations (0.25-1 μM); Superdex column, room temperature, 20 mM Tris-HCl pH 7.4, 0.5 M NaCl, 5% glycerol
[35] = target: restriction endonuclease BsaWI, wild type (Bacillus stearothermophilus W1718); test: SEC; gel filtration at 5 μM loading concentration; Superdex column, room temperature, 20 mM Tris-HCl pH 7.4, 0.5 M NaCl, 5% glycerol; oligomeric state from the apparent Mw
[36] = target: restriction endonuclease BsaWI, wild type (Bacillus stearothermophilus W1718)
[37] = target: restriction endonuclease BsaWI, wild type (Bacillus stearothermophilus W1718); test: SEC; gel filtration at 2.5-5 μM loading concentration (concentration series); Superdex column, room temperature, 20 mM Tris-HCl pH 7.4, 0.5 M NaCl, 5% glycerol
[38] = target: T1, BsaWI wt (UniProt Q6UQ65 1-272); test: EMSA; 5 mM Ca2+; lower mobility complex; EMSA: 40 mM Tris-acetate pH 8.3, 0.1 mg/ml BSA, 10% glycerol, 5 mM CaCl2 or 0.1 mM EDTA, 1 nM DNA, room temperature, 15 min; settings: protein: recombinant; chain copies: 4; label: 33P; blunt
T1 sequence: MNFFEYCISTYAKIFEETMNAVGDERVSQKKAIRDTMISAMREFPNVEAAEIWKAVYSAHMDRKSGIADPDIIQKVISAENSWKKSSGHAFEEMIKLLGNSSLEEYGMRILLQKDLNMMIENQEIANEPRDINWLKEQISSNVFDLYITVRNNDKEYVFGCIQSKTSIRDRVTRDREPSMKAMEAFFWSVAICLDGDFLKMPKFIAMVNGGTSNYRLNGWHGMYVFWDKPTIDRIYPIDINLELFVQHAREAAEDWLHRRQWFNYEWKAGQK

[39] = target: T1, BsaWI wt; test: crystal structure; 0.02 M CaCl2 in crystallization buffer; no Ca2+ seen; pre-specific complex; 2.40 A; EMSA: 40 mM Tris-acetate pH 8.3, 0.1 mg/ml BSA, 10% glycerol, 5 mM CaCl2 or 0.1 mM EDTA, 1 nM DNA, room temperature, 15 min; settings: protein: recombinant; chain copies: 4; blunt; self-complementary, 2 copies of strand

BsaWI D145A (enzyme)
stoichiometry N [1]: 4

BsaWI E128A (enzyme)
stoichiometry N [2]: 2 | stoichiometry N [3]: 2 | stoichiometry N [4]: 2 | ratio of DNA cleavage rate constants kobs for the 2-site and 1-site substrates at optimal enzyme concentration [5]: 17.9

BsaWI E128A&W262A (enzyme)
stoichiometry N [6]: 2 | stoichiometry N [7]: 2 | stoichiometry N [8]: 2 | ratio of DNA cleavage rate constants kobs for the 2-site and 1-site substrates at optimal enzyme concentration [9]: 2.2

BsaWI R130A&R259A (enzyme)
stoichiometry N [10]: 2 | stoichiometry N [11]: 2 | stoichiometry N [12]: 2 | ratio of DNA cleavage rate constants kobs for the 2-site and 1-site substrates at optimal enzyme concentration [13]: 1.1

BsaWI E128A&R130A (enzyme)
stoichiometry N [14]: 2 | stoichiometry N [15]: 2 | stoichiometry N [16]: 2 | ratio of DNA cleavage rate constants kobs for the 2-site and 1-site substrates at optimal enzyme concentration [17]: 1.8

BsaWI R259A&W262A (enzyme)
stoichiometry N [18]: 2 | stoichiometry N [19]: 2 | stoichiometry N [20]: 2 | ratio of DNA cleavage rate constants kobs for the 2-site and 1-site substrates at optimal enzyme concentration [21]: 2.2

BsaWI D175A (enzyme)
stoichiometry N [22]: 4

BsaWI R130A (enzyme)
stoichiometry N [23]: 2 | stoichiometry N [24]: 2 | stoichiometry N [25]: 2 | ratio of DNA cleavage rate constants kobs for the 2-site and 1-site substrates at optimal enzyme concentration [26]: 2.4

BsaWI K85A (enzyme)
stoichiometry N [27]: 4

BsaWI R259A (enzyme)
stoichiometry N [28]: 2 | stoichiometry N [29]: 2 | stoichiometry N [30]: 2 | ratio of DNA cleavage rate constants kobs for the 2-site and 1-site substrates at optimal enzyme concentration [31]: 14.4

restriction endonuclease BsaWI, wild type (enzyme)
stoichiometry N [32]: 4 | stoichiometry N [33]: 4 | stoichiometry N [34]: 2 | stoichiometry N [35]: 4 | ratio of DNA cleavage rate constants kobs for the 2-site and 1-site substrates at optimal enzyme concentration [36]: 20.6 | stoichiometry N [37]: 4

B1: NSP (dsDNA)
DNA 1: AATGGGCTCGCACGCCTGGTATTATCGATTGTA
DNA 2: TACAATCGATAATACCAGGCGTGCGAGCCCATT
Kd [38]: ~10 nM

B2: SP14 (dsDNA)
DNA 1: CTCGACCGGTCGAG
DNA 2: CTCGACCGGTCGAG
binding result [39]: binds
